Data on one molecule can be found in article PMC7246762, “Peptide Interference with APP and Tau Association: Relevance to Alzheimer’s Disease Amelioration” (International Journal of Molecular Sciences, 2020).

No end group written: not given here.

This experiment concerns the target T1, Tau1 (19-34) peptide labelled with rhodamine (human, also: labelled with rhodamine isothiocyanate, site not given here).
T1 construct: microtubule-associated protein Tau, human, residues 19-34; also called Tau1R; source: synthetic peptide (GL Biochem Ltd.), labelled with rhodamine isothiocyanate
T1 peptide: GLGDRKDQGGYTMHQD
The experiment can be described thus: far-Western, overlay or dot blot; mixtures of a fluorescein-labelled (green) and a rhodamine-labelled (red) peptide spotted on a nitrocellulose membrane; yellow colour read as binding. Particulars: both partners purified.

B1: APP1 (390-412) peptide labelled with fluorescein (peptide)
peptide: HFQKAKERLEAKHRERMSQVMRE
modifications: also: labelled with fluorescein isothiocyanate, site not given here
notes: amyloid precursor protein, human, residues 390-412; The discussion names the region as 389-411; also called APP1F; App1F; source: synthetic peptide (GL Biochem Ltd.), labelled with fluorescein isothiocyanate
Consider B1, for which the binding result is listed as “binds”.
